Test results reported in article PMC10246534 (Nature Communications, 2023).

B1: casirivimab (antibody, V domains shown)
VH: QVQLVESGGGLVKPGGSLRLSCAASGFTFSDYYMSWIRQAPGKGLEWVSYITYSGSTIYYADSVKGRFTISRDNAKSSLYLQMNSLRAEDTAVYYCARDRGTTMVPFDYWGQGTLVTVSS
VL: DIQMTQSPSSLSASVGDRVTITCQASQDITNYLNWYQQKPGKAPKLLIYAASNLETGVPSRFSGSGSGTDFTFTISGLQPEDIATYYCQQYDNLPLTFGGGTKVEIK
notes: source: Regeneron
B2: imdevimab (antibody, V domains shown)
VH: QVQLVESGGGVVQPGRSLRLSCAASGFTFSNYAMYWVRQAPGKGLEWVAVISYDGSNKYYADSVKGRFTISRDNSKNTLYLQMNSLRTEDTAVYYCASGSDYGDYLLVYWGQGTLVTVSS
VL: QSALTQPASVSGSPGQSITISCTGTSSDVGGYNYVSWYQQHPGKAPKLMIYDVSKRPSGVSNRFSGSKSGNTASLTISGLQSEDEADYYCNSLTSISTWVFGGGTKLTVL
notes: source: Regeneron

Target: Delta RBD WT (SARS-CoV-2, Delta variant (B.1.617.2), L452R)
Assay: SPR; Biacore T200; […]; HBS-EP, 25 °C; 1:1 binding model
Details: both partners purified

Binder | Kd
B1 | 0.36 nM
B2 | 9.4 nM
